Laboratory results from patent US20240368668.
Numbering of substitutions follows the chain as printed. Names may count otherwise.

Columns and labels:
[1] = molecular target: T1, purified recombinant human HA-tagged EFEMP1/Fibulin-3 (R&D, 8416-FB), Q12805
T1 chain: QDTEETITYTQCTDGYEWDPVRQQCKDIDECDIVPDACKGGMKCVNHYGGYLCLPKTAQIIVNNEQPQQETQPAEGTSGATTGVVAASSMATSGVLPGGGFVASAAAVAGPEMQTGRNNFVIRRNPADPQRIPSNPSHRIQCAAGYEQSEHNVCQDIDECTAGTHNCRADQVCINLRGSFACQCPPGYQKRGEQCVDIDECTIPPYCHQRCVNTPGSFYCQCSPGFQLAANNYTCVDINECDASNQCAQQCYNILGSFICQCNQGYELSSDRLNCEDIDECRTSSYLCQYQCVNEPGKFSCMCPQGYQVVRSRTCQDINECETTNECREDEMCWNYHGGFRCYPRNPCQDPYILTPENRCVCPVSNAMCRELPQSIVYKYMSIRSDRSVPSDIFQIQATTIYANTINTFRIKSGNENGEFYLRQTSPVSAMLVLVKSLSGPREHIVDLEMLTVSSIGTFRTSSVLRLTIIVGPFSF

[2] = molecular target: T2, endogenous EFEMP1 (EGF-containing fibulin-like extracellular matrix protein 1, Fibulin-3) secreted by HUVEC, Q12805
T2 chain: T1 chain

B1: purified full-length mouse ADAMTS7 S3A WT 3xFlag (protein)
chain: SVAKEKWVETLVVADSKMVEYHGQPQVESYVLTIMNMVAGLFHDPSIGNPIHISIVRLIILEDEEKDLKITHHAEETLKNFCRWQKNINIKGDDHPQHHDTAILLTRKDLCASMNQPCETLGLSHVSGLCHPQLSCSVSEDTGMPLAFTVAHELGHSFGIQHDGTGNDCESIGKRPFIMSPQLLYDRGIPLTWSRCSREYITRFLDRGWGLCLDDRPSKDVIALPSVLPGVLYDVNHQCRLQYGSHSAYCEDMDDVCHTLWCSVGTTCHSKLDAAVDGTSCGKNKWCLKGECVPEGFQPEAVDGGWSGWSAWSDCSRSCGVGVRSSERQCTQPVPKNRGKYCVGERKRSQLCNLPACPPDRPSFRHTQCSQFDGMLYKGKLHKWVPVPNDDNPCELHCRPSNSSNTEKLRDAVVDGTPCYQSRISRDICLNGICKNVGCDFVIDSGAEEDRCGVCRGDGSTCQTVSRTFKETEGQGYVDIGLIPAGAREILIEEVAEAANFLALRSEDPDKYFLNGGWTIQWNGDYRVAGTTFTYARKGNWENLTSPGPTSEPVWIQLLFQEKNPGVHYQYTIQRDSHDQVRPPEFSWHYGPWSKCTVTCGTGVQRQSLYCMERQAGVVAEEYCNTLNRPDERQRKCSEEPCPPRWWAGEWQPCSRSCGPEGLSRRAVFCIRSMGLDEQRALELSACEHLPRPLAETPCNRHVICPSTWGVGNWSQCSVTCGAGIRQRSVLCINNTDVPCDEAERPITETFCFLQPCQYPMYIVDTGASGSGSSSPELFNEVDFIPNQLAPRPSPASSPKPVSISNAIDEEELDPPGPVFVDDFYYDYNFINFHEDLSYGSFEEPHPDLVDNGGWTAPPHIRPTESPSDTPVPTAGALGAEAEDIQGSWSPSPLLSEASYSPPGLEQTSINPLANFLTEEDTPMGAPELGFPSLPWPPASVDDMMTPVGPGNPDELLVKEDEQSPPSTPWSDRNKLSTDGNPLGHTSPALPQSPIPTQPSPPSISPTQASPSPDVVEVSTGWNAAWDPVLEADLKPGHGELPSTVEVASPPLLPMATVPGIWGRDSPLEPGTPTFSSPELSSQHLKTLTMPGTLLLTVPTDLRSPGPSGQPQTPNLEGTQSPGLLPTPARETQTNSSKDPEVQPLQPSLEEDGDPADPLPARNASWQVGNWSQCSTTCGLGAIWRLVSCSSGNDEDCTLASRPQPARHCHLRPCAAWRTGNWSKCSRNCGGGSSTRDVQCVDTRDLRPLRPFHCQPGPTKPPNRQLCGTQPCLPWYTSSWRECSEACGGGEQQRLVTCPEPGLCEESLRPNNSRPCNTHPCTQWVVGPWGQCSAPCGGGVQRRLVRCVNTQTGLAEEDSDLCSHEAWPESSRPCATEDCELVEPPRCERDRLSFNFCETLRLLGRCQLPTIRAQCCRSCPPLSRGVPSRGHQRVARR
Q68SA9
  auto-cleavage, peptide sequencing of the purified protein: Peptide sequencing (Tufts University Core Facility) of the lower band or the total purified WT S3A protein identified a potential auto-cleavage site at F1062 (SYGS|FEEP)
[1]
  in vitro cleavage, 4 hours at 37 C, western blot: Full-length HA-EFEMP1 was detected at the expected position and a lower band was detected matching the predicted HA tagged amino terminus after cleavage by ADAMTS7 in the atypical first EGF domain

B2: full-length mouse Adamts7 1-1857 E373Q catalytic mutant with a carboxyl terminal 3xFLAG tag, expressed from adenovirus (protein)
chain: B1 chain with A3S, E153Q
[2]
  cleavage of endogenous EFEMP1 in HUVEC media, mass spectrometry: these sites were not detected in the Luc or EQ samples

B3: purified full-length mouse ADAMTS7 S3A EQ (catalytic mutant E373Q) (protein)
chain: B1 chain with E153Q
[1]
  in vitro cleavage, western blot and mass spectrometry of gel bands: background cleavage under conditions with no enzyme or with ADAMTS7 S3A EQ treatment, however these occurrences were relatively minor compared to the activity stimulated by ADAMTS7 S3A WT

B4: full-length mouse Adamts7 1-1857 WT with a carboxyl terminal 3xFLAG tag, expressed from adenovirus (protein)
chain: B1 chain with A3S
Q68SA9
  auto-cleavage, western blot of HUVEC media: ADAMTS7 WT migrated at two bands matching the observed autocleavage event in the mucin domain
[2]
  cleavage of endogenous EFEMP1 in HUVEC media, western blot and mass spectrometry: identified semi-tryptic and semi-chymotryptic peptides indicating cleavage at 123.124 and 124.125 sites from the Ad-ADAMTS7 WT sample
  relative cleavage at 123.124 against 124.125 (TAILS log FC and total intensities): predicting 2-3 fold more cleavage at 123.124 (ASAA|AVAG) (SEQ ID NO: 1) compared to the adjacent 124.125 (SAAA|VAGP) (SEQ ID NO: 2) site
